In patent US20230143003A1 (JULIUS MAXIMILIANS UNIVERSIT T W RZBURG, published 2023):
Where two headings read alike, the source gives them in different places.

Legend:
[1] = target: T1, hROR2-Fc (human ROR2 Fc fusion protein) (human, UniProt Q01974 34-403, limits assumed); assay: SPR, Biacore X100; hROR2-Fc captured, Fab injected
T1 construct: Given both as hROR2-Fc and as Fc-hROR2, so the order of the two parts is not certain; also called Fc-hROR2; not shown: human Fc part (captured by a mouse anti-human IgG CH2 / Fcγ mAb)

[2] = target: T1, hROR2-Fc (human ROR2 Fc fusion protein); assay: SPR (Biacore X100), Fc-hROR2 captured on CM5 chip via mouse anti-human Fcγ mAb, Fab as analyte, 1:1 binding model
Procedure: (§1) A CM5 chip immobilized with a mouse anti-human Fcγ mAb was used to capture Fc-hROR2.
(§2) Kinetic and thermodynamic parameters for the ROR2 binding of purified anti-ROR2 Fab variants were measured by use of SPR as previously described [29], performed on a Biacore X100 instrument using Biacore reagents and software (GE Healthcare). Briefly, a CM5 sensor chip was immobilized with a mouse anti-human IgG CH2 mAb in order to capture the hROR2-Fc antigen.

[3] = target: T2, human ROR1 on cells (MDA-MB-231, ROR2-, ROR1+; also 786-O, ROR2+, ROR1+) (human, UniProt Q01973 30-937); assay: flow cytometry on MDA-MB-231 cells (ROR2-, ROR1+); Fab followed by PE-conjugated goat anti-human F(ab')2 pAbs
T2 construct: whole, on cells
Procedure: Cells were analyzed using a FACSCanto instrument (BD Biosciences) and FlowJo analytical software (Tree Star).

[4] = target: T1, hROR2-Fc (human ROR2 Fc fusion protein); assay: SPR (Biacore X100), Fc-hROR2 captured on CM5 chip via mouse anti-human Fcγ mAb, Fab as analyte, 1:1 binding model; remark: listed apart in the source
Procedure: as §1, §2

Row | Binder | Kd [1] | koff [2] | kon [2] | binding result [3] | Kd [4] | koff [4] | kon [4]
1 | hX3.12.8 Fab (Fab, V domains shown, The text says that hX3.12.5 to hX3.12.8 all utilized VL2) VH: EQQVVESGGGLVQPGGSLRLSCAASGFSLSSYGVTWVRQAPGKGLEWVGYINTAGNTYYASWAKSRFTISRDNSKNTVYLQMNSLRAEDTAVYYCARDDRWSLNIWGQGTLVTVSS VL: DPMLTQSPSSLSASVGDRVTITCQASQSISSDLSWYQQKPGKAPKLLIYQASTLASGVPSRFKGSGYGTEYTLTISSLQPEDFATYYCLGGYADASYRTAFGGGTKLEIK | 5.2 nM | 0.00067 s⁻¹ | 130000 M⁻¹ s⁻¹ | – | – | – | –
2 | h401.6 Fab (hX3.12.6 framework regions with parental 401 CDR sequences) (Fab, V domains shown, this is an inference) VH: EVQLVESGGGLVQPGGSLRLSCAASGFTFSSYGVTWVRQAPGKGLEWVSYINTAGNTYYASWAKSRFTISRDNAKNSLYLQMNSLRAEDTAVYYCARDWTSLNIWGQGTLVTVSS VL: DPMLTQSPSSLSASVGDRVTITCQASQSISSDLSWYQQKPGKAPKLLIYQASTLASGVPSRFKGSGYGTEYTLTISSLQPEDFATYYCLGGYADASYRTAFGGGTKLEIK | 16 nM | 0.00023 s⁻¹ | 14000 M⁻¹ s⁻¹ | no binding | – | – | –
3 | XBR2-401-hX3.12.6 Fab (affinity matured and humanized) (Fab, V domains shown, Fab expressed in E. coli) VH: EVQLVESGGGLVQPGGSLRLSCAASGFTFSSYGVTWVRQAPGKGLEWVSYINTAGNTYYASWAKSRFTISRDNAKNSLYLQMNSLRAEDTAVYYCARDDRWSLNIWGQGTLVTVSS VL: DPMLTQSPSSLSASVGDRVTITCQASQSISSDLSWYQQKPGKAPKLLIYQASTLASGVPSRFKGSGYGTEYTLTISSLQPEDFATYYCLGGYADASYRTAFGGGTKLEIK | 3.8 nM | 0.00022 s⁻¹ | 60000 M⁻¹ s⁻¹ | no binding | – | – | –
4 | hX3.12.7 Fab (Fab, V domains shown, The text says that hX3.12.5 to hX3.12.8 all utilized VL2) VH: EQQVVESGGGLVQPGGSLRLSCAVSGFSLSSYGVTWVRQAPGKGLEWIGYINTAGNTYYASWAKSRFTISRNTNENTVYLQMNSLRAEDTAVYFCARDDRWSLNIWGQGTLVTVSS VL: DPMLTQSPSSLSASVGDRVTITCQASQSISSDLSWYQQKPGKAPKLLIYQASTLASGVPSRFKGSGYGTEYTLTISSLQPEDFATYYCLGGYADASYRTAFGGGTKLEIK | 1.4 nM | 0.00016 s⁻¹ | 110000 M⁻¹ s⁻¹ | – | – | – | –
5 | XBR2-401-hX3.12.5 Fab (affinity matured and humanized) (Fab, V domains shown, Fab expressed in E. coli) VH: EVQLVESGGGLIQPGGSLRLSCAASGFTVSSYGVTWVRQAPGKGLEWVSYINTAGNTYYASWAKSRFTISRDNSKNTLYLQMNSLRAEDTAVYYCARDDRWSLNIWGQGTLVTVSS VL: DPMLTQSPSSLSASVGDRVTITCQASQSISSDLSWYQQKPGKAPKLLIYQASTLASGVPSRFKGSGYGTEYTLTISSLQPEDFATYYCLGGYADASYRTAFGGGTKLEIK | 2.6 nM | 0.00048 s⁻¹ | 190000 M⁻¹ s⁻¹ | no binding | – | – | –
6 | X3.6 (Fab, V domains shown, one of the top 12 chimeric rabbit/human anti-human ROR2 Fabs selected from the focused HCDR3 mutagenesis library) VH: QSVKESEGGLFKPTDTLTLTCTVSGFSLSSYGVTWVRQAPGSGLEWIGYINTAGNTYYASWAKSRSTITRNTNENTVTLKMTSLTAADTATYFCARDSRNSLNIWGPGTLVTVSS VL: DPMLTQTPSSTSTAVGDTVTIKCQASQSISSDLSWYQQKPGQRPKLLIYQASTLASGVPSRFKGSGYGTEYTLTISGVQREDAAIYYCLGGYADASYRTAFGGGTKLEIK | – | – | – | – | 3.2 nM | 0.00019 s⁻¹ | 60000 M⁻¹ s⁻¹
7 | XBR2-401 Fab (parental chimeric rabbit/human anti-human ROR2 Fab) (Fab, V domains shown, Chimeric rabbit/human Fab (rabbit variable domains, human constant domains, kappa light chain, His tag)) VH: QSVKESEGGLFKPTDTLTLTCTVSGFSLSSYGVTWVRQAPGSGLEWIGYINTAGNTYYASWAKSRSTITRNTNENTVTLKMTSLTAADTATYFCARDWTSLNIWGPGTLVTVSS VL: DPMLTQTPSSTSTAVGDTVTIKCQASQSISSDLSWYQQKPGQRPKLLIYQASTLASGVPSRFKGSGYGTEYTLTISGVQREDAAIYYCLGGYADASYRTAFGGGTKLEIK | – | – | – | – | 7 nM | – | –
8 | X4.21 (Fab, V domains shown, one of the top 12 chimeric rabbit/human anti-human ROR2 Fabs selected from the focused HCDR3 mutagenesis library) VH: QSVKESEGGLFKPTDTLTLTCTVSGFSLSSYGVTWVRQAPGSGLEWIGYINTAGNTYYASWAKSRSTITRNTNENTVTLKMTSLTAADTATYFCARDSGVVSLNIWGPGTLVTVSS VL: DPMLTQTPSSTSTAVGDTVTIKCQASQSISSDLSWYQQKPGQRPKLLIYQASTLASGVPSRFKGSGYGTEYTLTISGVQREDAAIYYCLGGYADASYRTAFGGGTKLEIK | – | – | – | – | 3.4 nM | 8.1e-05 s⁻¹ | 24000 M⁻¹ s⁻¹
9 | X4.3 (Fab, V domains shown, one of the top 12 chimeric rabbit/human anti-human ROR2 Fabs selected from the focused HCDR3 mutagenesis library) VH: QSVKESEGGLFKPTDTLTLTCTVSGFSLSSYGVTWVRQAPGSGLEWIGYINTAGNTYYASWAKSRSTITRNTNENTVTLKMTSLTAADTATYFCARDWGNWSLNIWGPGTLVTVSS VL: DPMLTQTPSSTSTAVGDTVTIKCQASQSISSDLSWYQQKPGQRPKLLIYQASTLASGVPSRFKGSGYGTEYTLTISGVQREDAAIYYCLGGYADASYRTAFGGGTKLEIK | – | – | – | – | 1.3 nM | 3.8e-05 s⁻¹ | 30000 M⁻¹ s⁻¹
10 | X2.23 (Fab, V domains shown, one of the top 12 chimeric rabbit/human anti-human ROR2 Fabs selected from the focused HCDR3 mutagenesis library) VH: QSVKESEGGLFKPTDTLTLTCTVSGFSLSSYGVTWVRQAPGSGLEWIGYINTAGNTYYASWAKSRSTITRNTNENTVTLKMTSLTAADTATYFCARDYTSLNIWGPGTLVTVSS VL: DPMLTQTPSSTSTAVGDTVTIKCQASQSISSDLSWYQQKPGQRPKLLIYQASTLASGVPSRFKGSGYGTEYTLTISGVQREDAAIYYCLGGYADASYRTAFGGGTKLEIK | – | – | – | – | 1.4 nM | 4.7e-05 s⁻¹ | 33000 M⁻¹ s⁻¹
11 | X3.21 (Fab, V domains shown, one of the top 12 chimeric rabbit/human anti-human ROR2 Fabs selected from the focused HCDR3 mutagenesis library) VH: QSVKESEGGLFKPTDTLTLTCTVSGFSLSSYGVTWVRQAPGSGLEWIGYINTAGNTYYASWAKSRSTITRNTNENTVTLKMTSLTAADTATYFCARDGLTSLNIWGPGTLVTVSS VL: DPMLTQTPSSTSTAVGDTVTIKCQASQSISSDLSWYQQKPGQRPKLLIYQASTLASGVPSRFKGSGYGTEYTLTISGVQREDAAIYYCLGGYADASYRTAFGGGTKLEIK | – | – | – | – | 1.9 nM | 9.2e-05 s⁻¹ | 49000 M⁻¹ s⁻¹
12 | X4.12 (Fab, V domains shown, one of the top 12 chimeric rabbit/human anti-human ROR2 Fabs selected from the focused HCDR3 mutagenesis library) VH: QSVKESEGGLFKPTDTLTLTCTVSGFSLSSYGVTWVRQAPGSGLEWIGYINTAGNTYYASWAKSRSTITRNTNENTVTLKMTSLTAADTATYFCARDYMMNSLNIWGPGTLVTVSS VL: DPMLTQTPSSTSTAVGDTVTIKCQASQSISSDLSWYQQKPGQRPKLLIYQASTLASGVPSRFKGSGYGTEYTLTISGVQREDAAIYYCLGGYADASYRTAFGGGTKLEIK | – | – | – | – | 2.8 nM | 0.00015 s⁻¹ | 53000 M⁻¹ s⁻¹
13 | X2.12 (Fab, V domains shown, one of the top 12 chimeric rabbit/human anti-human ROR2 Fabs selected from the focused HCDR3 mutagenesis library) VH: QSVKESEGGLFKPTDTLTLTCTVSGFSLSSYGVTWVRQAPGSGLEWIGYINTAGNTYYASWAKSRSTITRNTNENTVTLKMTSLTAADTATYFCARDTMSLNIWGPGTLVTVSS VL: DPMLTQTPSSTSTAVGDTVTIKCQASQSISSDLSWYQQKPGQRPKLLIYQASTLASGVPSRFKGSGYGTEYTLTISGVQREDAAIYYCLGGYADASYRTAFGGGTKLEIK | – | – | – | – | 1.2 nM | 4e-05 s⁻¹ | 34000 M⁻¹ s⁻¹
14 | X4.9 (Fab, V domains shown, one of the top 12 chimeric rabbit/human anti-human ROR2 Fabs selected from the focused HCDR3 mutagenesis library) VH: QSVKESEGGLFKPTDTLTLTCTVSGFSLSSYGVTWVRQAPGSGLEWIGYINTAGNTYYASWAKSRSTITRNTNENTVTLKMTSLTAADTATYFCARDNGSTSLNIWGPGTLVTVSS VL: DPMLTQTPSSTSTAVGDTVTIKCQASQSISSDLSWYQQKPGQRPKLLIYQASTLASGVPSRFKGSGYGTEYTLTISGVQREDAAIYYCLGGYADASYRTAFGGGTKLEIK | – | – | – | – | 10 nM | 0.00034 s⁻¹ | 33000 M⁻¹ s⁻¹
15 | X3.13 (Fab, V domains shown, one of the top 12 chimeric rabbit/human anti-human ROR2 Fabs selected from the focused HCDR3 mutagenesis library) VH: QSVKESEGGLFKPTDTLTLTCTVSGFSLSSYGVTWVRQAPGSGLEWIGYINTAGNTYYASWAKSRSTITRNTNENTVTLKMTSLTAADTATYFCARDKGWSLNIWGPGTLVTVSS VL: DPMLTQTPSSTSTAVGDTVTIKCQASQSISSDLSWYQQKPGQRPKLLIYQASTLASGVPSRFKGSGYGTEYTLTISGVQREDAAIYYCLGGYADASYRTAFGGGTKLEIK | – | – | – | – | 1.1 nM | 2.7e-05 s⁻¹ | 26000 M⁻¹ s⁻¹
16 | X2.7 (Fab, V domains shown, one of the top 12 chimeric rabbit/human anti-human ROR2 Fabs selected from the focused HCDR3 mutagenesis library) VH: QSVKESEGGLFKPTDTLTLTCTVSGFSLSSYGVTWVRQAPGSGLEWIGYINTAGNTYYASWAKSRSTITRNTNENTVTLKMTSLTAADTATYFCARDSMSLNIWGPGTLVTVSS VL: DPMLTQTPSSTSTAVGDTVTIKCQASQSISSDLSWYQQKPGQRPKLLIYQASTLASGVPSRFKGSGYGTEYTLTISGVQREDAAIYYCLGGYADASYRTAFGGGTKLEIK | – | – | – | – | 1.5 nM | 0.0001 s⁻¹ | 69000 M⁻¹ s⁻¹
17 | X4.35 (Fab, V domains shown, one of the top 12 chimeric rabbit/human anti-human ROR2 Fabs selected from the focused HCDR3 mutagenesis library) VH: QSVKESEGGLFKPTDTLTLTCTVSGFSLSSYGVTWVRQAPGSGLEWIGYINTAGNTYYASWAKSRSTITRNTNENTVTLKMTSLTAADTATYFCARDSRRKSLNIWGPGTLVTVSS VL: DPMLTQTPSSTSTAVGDTVTIKCQASQSISSDLSWYQQKPGQRPKLLIYQASTLASGVPSRFKGSGYGTEYTLTISGVQREDAAIYYCLGGYADASYRTAFGGGTKLEIK | – | – | – | – | 31 nM | 0.0017 s⁻¹ | 54000 M⁻¹ s⁻¹
